The values that follow come from publication doi:10.1101/2021.04.16.440108 (bioRxiv, 2021).

Sequences and labels used below:
B1: Transgelin 3 (TAGLN3) (natural protein, human, UniProt Q9UI15 1-199, looked up)
chain: MANRGPSYGLSREVQEKIEQKYDADLENKLVDWIILQCAEDIEHPPPGRAHFQKWLMDGTVLCKLINSLYPPGQEPIPKISESKMAFKQMEQISQFLKAAETYGVRTTDIFQTVDLWEGKDMAAVQRTLMALGSVAVTKDDGCYRGEPSWFHRKAQQNRRGFSEEQLRQGQNVIGLQMGSNKGASQAGMTGYGMPRQIM
B2: IκBα (natural protein, UniProt P25963 1-317, looked up)
chain: MFQAAERPQEWAMEGPRDGLKKERLLDDRHDSGLDSMKDEEYEQMVKELQEIRLEPQEVPRGSEPWKQQLTEDGDSFLHLAIIHEEKALTMEVIRQVKGDLAFLNFQNNLQQTPLHLAVITNQPEIAEALLGAGCDPELRDFRGNTPLHLACEQGCLASVGVLTQSCTTPHLHSILKATNYNGHTCLHLASIHGYLGIVELLVSLGADVNAQEPCNGRTALHLAVDLQNPDLVSLLLKCGADVNRVTYQGYSPYQLTWGRPSTRIQQQLGQLTLENLQMLPESEDEESYDTESEFTEFTEDELPYDDCVFGGQRLTL

The target in the data set “IκBα” is B2. Kind of data set: nanoDSF. On the technique in general: In DSF a fluorescence change marks the thermal transition of the protein.
The target of the data set “Transgelin 3 (TAGLN3)” is B1. Kind of data set: nanoDSF.

What is called Kd is the constant that tells how readily two partners part at equilibrium. Higher therefore signals a looser complex. For the molecule B1, the Kd with IκBα was 10 µM. That is a double-digit micromolar value.

In the case of B2, the “Tm of TAGLN3 with 6-fold excess of IκBα (free TAGLN3: 56.8°C)” value in the data set with Transgelin 3 (TAGLN3) was 61 °C.
